The values below come from PMC9490328, “Characterization and structure of the human lysine-2-oxoglutarate reductase domain, a novel therapeutic target for treatment of glutaric aciduria type 1” (Open Biology, 2022).

For series [1], the target named is T1, 2-aminoadipic semialdehyde synthase (AASS), lysine-2-oxoglutarate reductase (LOR) domain (Homo sapiens, UniProt Q9UDR5).
T1 construct: recombinant LOR domain (amino acids 21-470)
T1 sequence (Q9UDR5 21-470): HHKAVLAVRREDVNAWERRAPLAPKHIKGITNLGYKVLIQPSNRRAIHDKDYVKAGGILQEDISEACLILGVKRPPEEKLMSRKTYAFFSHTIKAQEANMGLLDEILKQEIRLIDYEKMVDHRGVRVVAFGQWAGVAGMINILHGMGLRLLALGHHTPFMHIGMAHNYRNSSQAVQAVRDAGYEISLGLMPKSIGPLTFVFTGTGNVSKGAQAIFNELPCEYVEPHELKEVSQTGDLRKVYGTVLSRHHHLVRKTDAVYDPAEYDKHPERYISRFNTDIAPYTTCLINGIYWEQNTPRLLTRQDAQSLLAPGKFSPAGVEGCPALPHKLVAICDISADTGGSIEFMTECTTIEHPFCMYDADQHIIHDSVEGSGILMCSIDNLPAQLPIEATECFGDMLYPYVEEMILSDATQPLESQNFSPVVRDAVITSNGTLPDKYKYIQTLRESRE
As to the kind of experiment: spectrophotometric LOR enzyme assay ([…] nm, NADPH consumption). The series is classed as biochemical.

Series [2] concerns the target T2, 2-aminoadipic semialdehyde synthase (AASS), lysine-2-oxoglutarate reductase (LOR) domain (Homo sapiens, UniProt Q9UDR5).
T2 construct: LOR short construct (amino acids 21-451)
T2 sequence (Q9UDR5 21-451): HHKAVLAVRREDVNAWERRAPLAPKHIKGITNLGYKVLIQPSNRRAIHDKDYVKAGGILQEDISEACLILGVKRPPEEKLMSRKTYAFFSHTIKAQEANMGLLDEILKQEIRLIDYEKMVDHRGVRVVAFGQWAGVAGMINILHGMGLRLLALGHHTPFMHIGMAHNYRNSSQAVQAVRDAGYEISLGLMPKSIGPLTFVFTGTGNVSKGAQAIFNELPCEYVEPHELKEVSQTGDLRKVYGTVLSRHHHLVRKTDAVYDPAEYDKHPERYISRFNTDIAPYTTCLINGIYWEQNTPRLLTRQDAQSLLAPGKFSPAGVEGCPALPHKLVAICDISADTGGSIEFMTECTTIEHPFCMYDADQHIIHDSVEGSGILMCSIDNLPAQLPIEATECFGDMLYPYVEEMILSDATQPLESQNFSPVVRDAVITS
Description: X-ray crystal structure of NEM-alkylated LOR; also activation in enzyme assay and immunoblot with anti-NEM antibody. The series is classed as binding.

Substrate in series [3]: O=C(O)CCC(=O)C(=O)O
Description: purified protein. Particulars: NADPH; pH 8.8.

Substrate in series [4]: NC(=O)c1ccc[n+]([C@@H]2O[C@H](COP(=O)(O)OP(=O)(O)OC[C@H]3O[C@@H](n4cnc5c(N)ncnc54)[C@H](OP(=O)(O)O)[C@@H]3O)[C@@H](O)[C@H]2O)c1
As to the kind of experiment: purified protein. Particulars: pH 8.8; varied: cofactor.

Substrate in series [5]: NC(=O)C1=CN([C@@H]2O[C@H](COP(=O)(O)OP(=O)(O)OC[C@H]3O[C@@H](n4cnc5c(N)ncnc54)[C@H](OP(=O)(O)O)[C@@H]3O)[C@@H](O)[C@H]2O)C=CC1
As to the kind of experiment: purified protein. The conditions noted are these: predicted: Ser […] and Arg […] interact with the additional phosphate of NADPH; pH 8.8; varied: cofactor.

Substrate in series [6]: N[C@@H](CCCCN[C@@H](CCC(=O)O)C(=O)O)C(=O)O
Description: steady-state kinetics, reverse reaction (Km); also inhibits the forward LOR reaction in AASS-Myc-DDK lysates. It is filed as biochemical, Homo sapiens. The conditions noted are these: NADP+ consistent with its ability to compete with lysine and 2-oxoglutarate; pH 8.8.

Substrate in series [7]: NCCCC[C@H](N)C(=O)O
Description: steady-state kinetics, forward reaction (Km). It is filed as biochemical, Homo sapiens. Particulars: NADPH; pH 8.8.

`NC[C@@H]1CCCN1C(=O)c1ccc2c(c1)CCC(=O)N2` [S-105] showed an IC50 in series [1] of 142 µM.

Take `CCN1C(=O)C=CC1=O` [NEM, N-ethylmaleimide]: in series [2], the “X-ray crystal structure of NEM-alkylated LOR; also activation in enzyme assay an” value is given as “crystal structure of NEM-alkylated LOR short construct (PDB 8E8V)”.

B1: 2-aminoadipic semialdehyde synthase (AASS), lysine-2-oxoglutarate reductase (LOR) domain (Homo sapiens) (protein)
chain: T1 sequence (Q9UDR5 21-470)
notes: isolated LOR (amino acids 21-470)
Turning to B1, the Km in “purified protein [3]” is 1400 ± 100 µM; in “purified protein [4]”, 420 ± 10 µM; in the series “purified protein [5]” it was 390 ± 20 µM; in series [6], 1700 ± 100 µM; in series [7], 24000 ± 2000 µM. The Vmax was 57.2 µmol/min/mg in “purified protein [3]”; 525 µmol/min/mg in “purified protein [4]”; 65.4 µmol/min/mg in the series “purified protein [5]”; 443 µmol/min/mg in series [6]; 28.8 µmol/min/mg in series [7].

As usually defined, the IC50 is the point on the concentration scale where inhibition reaches its midpoint. A word on the Km: it is the concentration of substrate that gives half-maximal velocity. One may read the Vmax as the top rate of the reaction or transport when substrate is in excess.
